Target: T1, biotinylated human soluble TWEAK (human, UniProt O43508, biotin (site not stated))
T1 construct: TWEAK, human, soluble form; Captured on a streptavidin (SA) sensor by its biotin; also called biotinylated TWEAK ligand
Assay: SPR; Biacore 2000, SA sensor, biotinylated human soluble TWEAK coupled at 150 RU; antibody injected at 100 nM, 2 min association, 5 min dissociation at 25 C in HBS-ET (10 mM HEPES pH 7.4, 150 mM NaCl, 1 mM EDTA, 0.05% Tween 20); half-life from kd of the interval 240-300 s
Details: both partners purified

T1 sequence (O43508 94-249): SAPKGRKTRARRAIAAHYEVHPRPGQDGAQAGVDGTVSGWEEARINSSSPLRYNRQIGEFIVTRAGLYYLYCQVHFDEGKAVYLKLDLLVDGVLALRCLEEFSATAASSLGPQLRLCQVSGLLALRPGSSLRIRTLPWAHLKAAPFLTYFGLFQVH

B1: chi TW-305 (chimeric rabbit anti-TWEAK monoclonal antibody) (antibody, V domains shown)
VH: QEQLVESGGGLVQPGGSLTLSCKASGFDFSTYYMSWVRQAPGKGLEWIGTVYVRQGTTYYASWLNGRFTISSDNAQNTVDLKMNSLTAADTATYFCAKGGYNYDDAFVIWGPGTLVTVSF
VL: AIEMTQTPFSVSAAVGGTVTINCQASQNIYSNLAWYQQKPGQPPKLLMYTASYLASGVPSRFKGSGSRTEYTLTISGVQCADAATYYCQTAYYNSRPDTVAFGGGTEVVVK
notes: Fab part as the heavy chain of m5 (PDB 4HT1); as the light chain of m5 (PDB 4HT1); Whole antibody from which the Fab m5 was cut; source: produced by standard procedures
t/2 diss (half-life of immunocomplex): 2.45 h

Source: PMC3648529 (PLoS ONE, 2013)
